Results taken from patent publication US20220025060A1 (JIANGSU HENGRUI MEDICINE, published 2022).

Target: T1, His-tagged human CD40 (h-CD40-his) recombinant protein (human, UniProt P25942 21-193)
T1 construct: range 21-193; Commercial reagent from Acrobiosystems; also called human CD40-his; not shown: His tag
Experiment: Biacore SPR
Excerpt: According to the method described in the instruction available from Human Anti-capture Kit (Cat.# BR-1008-39, GE), human anti-capture antibody was covalently coupled to biosensing chip CM5 of the Biacore instrument (Biacore X100, GE), a certain amount of chimeric or humanized antibodies to be tested was affinity-captured, and then a series of concentration gradients of CD40 antigen (CD40 antigen purchased from Acrobiosystems) flowed through the surface of the chip. Biacore instrument (Biacore X100, GE) was used to detect the reaction signal in real-time, thus to obtain the association and dissociation curves. After each cycle of dissociation was completed, the biochip was washed and regenerated with a regeneration solution provided by the Human Anti-capture Kit. The amino coupling kit used in the test was purchased from GE (Cat. # BR-1000-50, GE), and HBS-EP+10× buffer solution (Cat. # BR-1006-69, GE) was diluted to 1×(pH 7.4) with double distilled water.
The data obtained from the test was fitted against a (1:1) Binding model using BiacoreX100 evaluation software2.0 GE, and the affinity value was obtained, as shown in Table 10 and Table 11.

T1 sequence (P25942 21-193 limits assumed): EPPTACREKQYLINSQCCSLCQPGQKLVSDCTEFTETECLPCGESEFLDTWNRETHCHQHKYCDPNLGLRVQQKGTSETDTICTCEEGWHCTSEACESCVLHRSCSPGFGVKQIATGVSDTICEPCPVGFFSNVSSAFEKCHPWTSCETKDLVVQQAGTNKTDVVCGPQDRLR

B1: humanized antibody hu9E5 (H1c heavy chain, L1a light chain) (antibody, human IgG1, kappa, V domains shown)
VH: QVQLVQSGAEVKKPGASVKVSCKASGYILTTYWITWVRQAPGQGLEWMGDIHPGSGSTKYNEKFKSRVTLTVDTSISTAYMELSRLRSEDTAVYYCARRDYWGQGTTVTVSS
VL: DIVMTQSPLSLPVTPGEPASISCRSSQNIVNSQGNTYLEWYLQKPGQSPQLLIYKVTNRFSGVPDRFSGSGSGTDFTLKISRVEAEDVGVYYCFQASLVPWTFGGGTKVEIKR
notes: also called Hu9E5-25
fold affinity against the Alligator control: ≥ 10 times
fold affinity against the Pfizer Control: ≥ 4 times
